According to PMC8298264, “Function of cofactor Akirin2 in the regulation of gene expression in model human neutrophil-like HL60 cells” (Bioscience Reports, 2021):

B1: sp¦P23381¦SYWC_HUMAN (protein, UniProt P23381 2-471, looked up)
Tryptophan--tRNA ligase, …: PNSEPASLLELFNSIATQGELVRSLKAGNASKDEIDSAVKMLVSLKMSYKAAAGEDYKADCPPGNPAPTSNHGPDATEAEEDFVDPWTVQTSSAKGIDYDKLIVRFGSSKIDKELINRIERATGQRPHHFLRRGIFFSHRDMNQVLDAYENKKPFYLYTGRGPSSEAMHVGHLIPFIFTKWLQDVFNVPLVIQMTDDEKYLWKDLTLDQAYSYAVENAKDIIACGFDINKTFIFSDLDYMGMSSGFYKNVVKIQKHVTFNQVKGIFGFTDSDCIGKISFPAIQAAPSFSNSFPQIFRDRTDIQCLIPCAIDQDPYFRMTRDVAPRIGYPKPALLHSTFFPALQGAQTKMSASDPNSSIFLTDTAKQIKTKVNKHAFSGGRDTIEEHRQFGGNCDVDVSFMYLTFFLEDDDKLEQIRKDYTSGAMLTGELKKALIEVLQPLIAEHQARRKEVTDEIVKEFMTPRKLSFDFQ
B2: sp¦P20645¦MPRD_HUMAN (protein, UniProt P20645 27-277, looked up)
Cation-dependent …: TEEKTCDLVGEKGKESEKELALVKRLKPLFNKSFESTVGQGSDTYIYIFRVCREAGNHTSGAGLVQINKSNGKETVVGRLNETHIFNGSNWIMLIYKGGDEYDNHCGKEQRRAVVMISCNRHTLADNFNPVSEERGKVQDCFYLFEMDSSLACSPEISHLSVGSILLVTFASLVAVYVVGGFLYQRLVVGAKGMEQFPHLAFWQDLGNLVADGCDFVCRSKPRNVPAAYRGVGDDQLGEESEERDDHLLPM
B3: sp¦Q9H845¦ACAD9_HUMAN (protein, UniProt Q9H845 38-621, looked up)
Complex I assembly factor …: AFAKELFLGKIKKKEVFPFPEVSQDELNEINQFLGPVEKFFTEEVDSRKIDQEGKIPDETLEKLKSLGLFGLQVPEEYGGLGFSNTMYSRLGEIISMDGSITVTLAAHQAIGLKGIILAGTEEQKAKYLPKLASGEHIAAFCLTEPASGSDAASIRSRATLSEDKKHYILNGSKVWITNGGLANIFTVFAKTEVVDSDGSVKDKITAFIVERDFGGVTNGKPEDKLGIRGSNTCEVHFENTKIPVENILGEVGDGFKVAMNILNSGRFSMGSVVAGLLKRLIEMTAEYACTRKQFNKRLSEFGLIQEKFALMAQKAYVMESMTYLTAGMLDQPGFPDCSIEAAMVKVFSSEAAWQCVSEALQILGGLGYTRDYPYERILRDTRILLIFEGTNEILRMYIALTGLQHAGRILTTRIHELKQAKVSTVMDTVGRRLRDSLGRTVDLGLTGNHGVVHPSLADSANKFEENTYCFGRTVETLLLRFGKTIMEEQLVLKRVANILINLYGMTAVLSRASRSIRIGLRNHDHEVLLANTFCVEAYLQNLFSLSQLDKYAPENLDEQIKKVSQQILEKRAYICAHPLDRTC

test system: human HL60 cells; test: SWATH-MS proteomics, differential protein representation, akirin2 KO vs WT HL60 cells; type: cell-based; settings: akirin2 KO vs WT HL60 cells; sheet "Under-represented in KO"
Procedure, shortened: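 Three biological replicates per genotype; 150 µg protein FASP/trypsin digested; IDA library (3 µg digest); SWATH variable windows, 5 µg/sample, 3.6 s cycle; gradient 5–30% B 120 min then 30–60% B 15 min; 1% global FDR; TAS normalization.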

Compared with B1, B2 is higher in “Fold Change” value: 0.6341 for the first, 0.6378 for the second.

In the case of B3, the “Fold Change” value is reported as 0.6441.

B1 and B2 are within 0.2 log units of each other in “Log (Fold Change)” value: -0.1979 for the first, -0.1953 for the second.

With B3 the “Log (Fold Change)” value was -0.191.
